Experimental data as given in the supplement of paper PMC11246515.
± gives the standard deviation of the averaged measurements.

Assay: total protein half-life in vivo (active degradation + dilution); higher = more stable protein
[1] = wild type E. coli NCM3722, growth: C-lim chemostat, doubling time 3 h
[2] = wild type E. coli NCM3722, growth: N-lim chemostat, doubling time 12 h
[3] = E. coli NCM3722 delta-clpP delta-lon delta-hslV, growth: N-lim chemostat, doubling time 6 h
[4] = E. coli NCM3722 delta-clpP, growth: N-lim chemostat, doubling time 6 h
[5] = E. coli NCM3722 delta-hslV, growth: N-lim chemostat, doubling time 6 h
[6] = E. coli NCM3722 delta-lon, growth: N-lim chemostat, doubling time 6 h
[7] = E. coli NCM3722 delta-smpB, growth: N-lim chemostat, doubling time 6 h
[8] = wild type E. coli NCM3722, growth: C-lim chemostat, doubling time 6 h
[9] = wild type E. coli NCM3722, growth: C-lim chemostat, doubling time 12 h
[10] = wild type E. coli NCM3722, growth: N-lim chemostat, doubling time 6 h
[11] = wild type E. coli NCM3722, growth: P-lim chemostat, doubling time 6 h
[12] = wild type E. coli NCM3722, growth: P-lim chemostat, doubling time 12 h

Sequence | total protein half-life in vivo [1] [h] | total protein half-life in vivo [2] [h] | total protein half-life in vivo [3] [h] | total protein half-life in vivo [4] [h] | total protein half-life in vivo [5] [h] | total protein half-life in vivo [6] [h] | total protein half-life in vivo [7] [h] | total protein half-life in vivo [8] [h] | total protein half-life in vivo [9] [h] | total protein half-life in vivo [10] [h] | total protein half-life in vivo [11] [h] | total protein half-life in vivo [12] [h]
MTNTWNRLALLIFAVLSLLVAGELQAGVVVGGTRFIFPADRESISILLTNTSQESWLINSKINRPTRWAGGEASTVPAPLLAAPPLILLKPGTTGTLRLLRTESDILPVDRETLFELSIASVPSGKVENQSVKVAMRSVFKLFWRPEGLPGDPLEAYQQLRWTRNSQGVQLTNPTPYYINLIQVSVNGKALSNVGVVPPKSQRQTSWCQAIAPCHVAWRAINDYGGLSAKKEQNLP | 2.87 | 3.48 |  |  |  |  |  |  |  |  |  | 
MTPEHLPTEQYEAQLAEKVVRLQSMMAPFSDLVPEVFRSPVSHYRMRAEFRIWHDGDDLYHIIFDQQTKSRIRVDSFPAASELINQLMTAMIAGVRNNPVLRHKLFQIDYLTTLSNQAVVSLLYHKKLDDEWRQEAEALRDALRAQNLNVHLIGRATKTKIELDQDYIDERLPVAGKEMIYRQVENSFTQPNAAMNIQMLEWALDVTKGSKGDLLELYCGNGNFSLALARNFDRVLATEIAKPSVAAAQYNIAANHIDNVQIIRMAAEEFTQAMNGVREFNRLQGIDLKSYQCETIFVDPPRSGLDSETEKMVQAYPRILYISCNPETLCKNLETLSQTHKVERLALFDQFPYTHHMECGVLLTAK |  | 11.3 ± 2.8 | 6.08 ± 1.6 | 5.19 ± 0.62 | 4.85 ± 0.33 | 5.53 ± 0.082 | 5.35 ± 0.35 | 6.89 ± 0.74 | 12.6 ± 2.2 | 4.83 ± 0.21 | 5.56 ± 0.39 | 13.8 ± 1.9
MTPGEVRRLYFIIRTFLSYGLDELIPKMRITLPLRLWRYSLFWMPNRHKDKLLGERLRLALQELGPVWIKFGQMLSTRRDLFPPHIADQLALLQDKVAPFDGKLAKQQIEAAMGGLPVEAWFDDFEIKPLASASIAQVHTARLKSNGKEVVIKVIRPDILPVIKADLKLIYRLARWVPRLLPDGRRLRPTEVVREYEKTLIDELNLLRESANAIQLRRNFEDSPMLYIPEVYPDYCSEGMMVMERIYGIPVSDVAALEKNGTNMKLLAERGVQVFFTQVFRDSFFHADMHPGNIFVSYEHPENPKYIGIDCGIVGSLNKEDKRYLAENFIAFFNRDYRKVAELHVDSGWVPPDTNVEEFEFAIRTVCEPIFEKPLAEISFGHVLLNLFNTARRFNMEVQPQLVLLQKTLLYVEGVGRQLYPQLDLWKTAKPFLESWIKDQVGIPALVRAFKEKAPFWVEKMPELPELVYDSLRQGKYLQHSVDKIARELQSNHVRQGQSRYFLGIGATLVLSGTFLLVSRPEWGLMPGWLMAGGLIAWFVGWRKTR [P0A6A0] |  | 12.3 ± 0.45 | 6.52 ± 0.12 | 6.43 ± 0.4 |  | 5.96 ± 0.34 | 5.829 ± 0.037 | 6.626 ± 0.057 | 12.4 ± 1.3 | 6.04 ± 0.33 | 6.6 ± 0.39 | 12.8 ± 0.67
MTPILNHYFARINWSGAAAVNIDTLRALHLKHNCTIPFENLDVLLPREIQLDNQSPEEKLVIARRGGYCFEQNGVFERVLRELGFNVRSLLGRVVLSNPPALPPRTHRLLLVELEEEKWIADVGFGGQTLTAPIRLVSDLVQTTPHGEYRLLQEGDDWVLQFNHHQHWQSMYRFDLCEQQQSDYVMGNFWSAHWPQSHFRHHLLMCRHLPDGGKLTLTNFHFTHYENGHAVEQRNLPDVASLYAVMQEQFGLGVDDAKHGFTVDELALVMAAFDTHPEAGK |  | 5.26 ± 0.66 |  | 2.34 ± 0.39 | 3.1 | 4.618 ± 0.018 | 2.15 ± 0.18 | 2.81 | 4.65 | 3.11 ± 0.3 |  | 3.88
MTPLLELKDIRRSYPAGDEQVEVLKGISLDIYAGEMVAIVGASGSGKSTLMNILGCLDKATSGTYRVAGQDVATLDADALAQLRREHFGFIFQRYHLLSHLTAEQNVEVPAVYAGLERKQRLLRAQELLQRLGLEDRTEYYPAQLSGGQQQRVSIARALMNGGQVILADEPTGALDSHSGEEVMAILHQLRDRGHTVIIVTHDPQVAAQAERVIEIRDGEIVRNPPAIEKVNVTGGTEPVVNTVSGWRQFVSGFNEALTMAWRALAANKMRTLLTMLGIIIGIASVVSIVVVGDAAKQMVLADIRSIGTNTIDVYPGKDFGDDDPQYQQALKYDDLIAIQKQPWVASATPAVSQNLRLRYNNVDVAASANGVSGDYFNVYGMTFSEGNTFNQEQLNGRAQVVVLDSNTRRQLFPHKADVVGEVILVGNMPARVIGVAEEKQSMFGSSKVLRVWLPYSTMSGRVMGQSWLNSITVRVKEGFDSAEAEQQLTRLLSLRHGKKDFFTWNMDGVLKTVEKTTRTLQLFLTLVAVISLVVGGIGVMNIMLVSVTERTREIGIRMAVGARASDVLQQFLIEAVLVCLVGGALGITLSLLIAFTLQLFLPGWEIGFSPLALLLAFLCSTVTGILFGWLPARNAARLDPVDALARE | 3.15 ± 0.084 | 12.6 ± 0.13 | 6.72 ± 0.55 | 6.57 ± 0.25 | 6.77 ± 0.99 | 6.57 ± 1.3 | 5.95 ± 0.35 | 5.92 ± 0.28 | 12.4 ± 0.29 | 6.2 ± 0.35 | 6.45 ± 0.26 | 11.9 ± 0.64
MTPLRVFRKTTPLVNTIRLSLLPLAGLSFSAFAAQVNIAPGSLDKALNQYAAHSGFTLSVDASLTRGKQSNGLHGDYDVESGLQQLLDGSGLQVKPLGNNSWTLEPAPAPKEDALTVVGDWLGDARENDVFEHAGARDVIRREDFAKTGATTMREVLNRIPGVSAPENNGTGSHDLAMNFGIRGLNPRLASRSTVLMDGIPVPFAPYGQPQLSLAPVSLGNMDAIDVVRGGGAVRYGPQSVGGVVNFVTRAIPQDFGIEAGVEGQLSPTSSQNNPKETHNLMVGGTADNGFGTALLYSGTRGSDWREHSATRIDDLMLKSKYAPDEVHTFNSLLQYYDGEADMPGGLSRADYDADRWQSTRPYDRFWGRRKLASLGYQFQPDSQHKFNIQGFYTQTLRSGYLEQGKRITLSPRNYWVRGIEPRYSQIFMIGPSAHEVGVGYRYLNESTHEMRYYTATSSGQLPSGSSPYDRDTRSGTEAHAWYLDDKIDIGNWTITPGMRFEHIESYQNNAITGTHEEVSYNAPLPALNVLYHLTDSWNLYANTEGSFGTVQYSQIGKAVQSGNVEPEKARTWELGTRYDDGALTAEMGLFLINFNNQYDSNQTNDTVTARGKTRHTGLETQARYDLGTLTPTLDNVSIYASYAYVNAEIREKGDTYGNLVPFSPKHKGTLGVDYKPGNWTFNLNSDFQSSQFADNANTVKESADGSTGRIPGFMLWGARVAYDFGPQMADLNLAFGVKNIFDQDYFIRSYDDNNKGIYAGQPRTLYMQGSLKF | 3.66 | > 16 |  | 6.44 ± 0.23 |  | 6.48 | > 8 |  |  | 5.3 ± 0.92 |  | 
MTPVKVWQERVEIPTYETGPQDIHPMFLENRVYQGSSGAVYPYGVTDTLSEQKTLKSWQAVWLENDYIKVMILPELGGRVHRAWDKVKQRDFVYHNEVIKPALVGLLGPWISGGIEFNWPQHHRPTTFMPVDFTLEAHEDGAQTVWVGETEPMHGLQVMTGFTLRPDRAALEIASRVYNGNATPRHFLWWANPAVKGGEGHQSVFPPDVTAVFDHGKRAVSAFPIATGTYYKVDYSAGVDISRYKNVPVPTSYMAEKSQYDFVGAWCHDEDGGLLHVANHHIAPGKKQWSWGHSEFGQAWDKSLTDNNGPYIELMTGIFADNQPDFTWLDAYEEKRFEQYFLPYHSLGMVQNASRDAVIKLQRSKRGIEWGLYAISPLNGYRLAIREIGKCNALLDDAVALMPATAIQGVLHGINPERLTIELSDADGNIVLSYQEHQPQALPLPDVAKAPLAAQDITSTDEAWFIGQHLEQYHHASRSPFDYYLRGVALDPLDYRCNLALAMLEYNRADFPQAVAYATQALKRAHALNKNPQCGQASLIRASAYERQGQYQQAEEDFWRAVWSGNSKAGGYYGLARLAARNGNFDAGLDFCQQSLRACPTNQEVLCLHNLLLVLSGRQDNARVQREKLLRDYPLNATLWWLNWFDGRSESALAQWRGLCQGRDVNALMTAGQLINWGMPTLAAEMLNALDCQRTLPLYLQASLLPKAERGELVAKAIDVFPQFVRFPNTLEEVAALESIEECWFARHLLACFYYNKRSYNKAIAFWQRCVEMSPEFADGWRGLAIHAWNKQHDYELAARYLDNAYQLAPQDARLLFERDLLDKLSGATPEKRLARLENNLEIALKRDDMTAELLNLWHLTGQADKAADILATRKFHPWEGGEGKVTSQFILNQLLRAWQHLDARQPQQACELLHAALHYPENLSEGRLPGQTDNDIWFWQAICANAQGDETEATRCLRLAATGDRTINIHSYYNDQPVDYLFWQGMALRLLGEQQTAQQLFSEMKQWAQEMAKTSIEADFFAVSQPDLLSLYGDLQQQHKEKCLMVAMLASAGLGEVAQYESARAELTAINPAWPKAALFTTVMPFIFNRVH | 3.06 ± 0.34 |  |  |  |  |  |  | 4.96 ± 0.015 | 8.56 ± 1.8 |  |  | 7.32
MTQFNPVDHPHRRYNPLTGQWILVSPHRAKRPWQGAQETPAKQVLPAHDPDCFLCAGNVRVTGDKNPDYTGTYVFTNDFAALMSDTPDAPESHDPLMRCQSARGTSRVICFSPDHSKTLPELSVAALTEIVKTWQEQTAELGKTYPWVQVFENKGAAMGCSNPHPHGQIWANSFLPNEAEREDRLQKEYFAEQKSPMLVDYVQRELADGSRTVVETEHWLAVVPYWAAWPFETLLLPKAHVLRITDLTDAQRSDLALALKKLTSRYDNLFQCSFPYSMGWHGAPFNGEENQHWQLHAHFYPPLLRSATVRKFMVGYEMLAETQRDLTAEQAAERLRAVSDIHFRESGV | 3.38 ± 0.37 | 6.05 ± 0.21 | 3.59 ± 0.68 | 3.9 ± 0.27 | 4.65 ± 1 | 5.17 ± 1 | 3.41 ± 0.41 | 5.51 ± 0.28 | 12.5 ± 2.4 | 4.16 ± 0.59 | 5.52 ± 0.24 | 11.7 ± 0.13
MTQNIRPLPQFKYHPKPLETGAFEQDKTVECDCCEQQTSVYYSGPFYCVDEVEHLCPWCIADGSAAEKFAGSFQDDASIEGVEFEYDEEDEFAGIKNTYPDEMLKELVERTPGYHGWQQEFWLAHCGDFCVFIGYVGWNDIKDRLDEFANLEEDCENFGIRNSDLAKCLQKGGHCQGYLFRCLHCGKLRLWGDFS |  |  | 5.27 |  |  |  |  |  |  |  |  | 
MTQPLFLIGPRGCGKTTVGMALADSLNRRFVDTDQWLQSQLNMTVAEIVEREEWAGFRARETAALEAVTAPSTVIATGGGIILTEFNRHFMQNNGIVVYLCAPVSVLVNRLQAAPEEDLRPTLTGKPLSEEVQEVLEERDALYREVAHIIIDATNEPSQVISEIRSALAQTINC [P0A6E1] | 2.43 ± 0.067 | 3.99 ± 0.094 | 4.64 ± 0.55 | 5.49 ± 2.4 | 2.62 ± 0.031 | 2.9 ± 0.18 | 2.42 ± 0.11 | 5.25 ± 0.8 | 7.3 ± 0.53 | 2.59 ± 0.29 | 3.9 ± 0.047 | 8.17 ± 0.78
MTQTYNADAIEVLTGLEPVRRRPGMYTDTTRPNHLGQEVIDNSVDEALAGHAKRVDVILHADQSLEVIDDGRGMPVDIHPEEGVPAVELILCRLHAGGKFSNKNYQFSGGLHGVGISVVNALSKRVEVNVRRDGQVYNIAFENGEKVQDLQVVGTCGKRNTGTSVHFWPDETFFDSPRFSVSRLTHVLKAKAVLCPGVEITFKDEINNTEQRWCYQDGLNDYLAEAVNGLPTLPEKPFIGNFAGDTEAVDWALLWLPEGGELLTESYVNLIPTMQGGTHVNGLRQGLLDAMREFCEYRNILPRGVKLSAEDIWDRCAYVLSVKMQDPQFAGQTKERLSSRQCAAFVSGVVKDAFILWLNQNVQAAELLAEMAISSAQRRMRAAKKVVRKKLTSGPALPGKLADCTAQDLNRTELFLVEGDSAGGSAKQARDREYQAIMPLKGKILNTWEVSSDEVLASQEVHDISVAIGIDPDSDDLSQLRYGKICILADADSDGLHIATLLCALFVKHFRALVKHGHVYVALPPLYRIDLGKEVYYALTEEEKEGVLEQLKRKKGKPNVQRFKGLGEMNPMQLRETTLDPNTRRLVQLTIDDEDDQRTDAMMDMLLAKKRSEDRRNWLQEKGDMAEIEV | 2.68 ± 0.1 | 5.867 ± 0.054 | 5.85 ± 0.4 | 6.09 ± 0.22 | 5.29 ± 1.9 | 4.41 ± 0.076 | 3.56 ± 0.24 | 4.78 ± 0.23 | 7.42 ± 0.43 | 3.79 ± 0.16 | 3.96 ± 0.39 | 8.4 ± 0.31
